What was measured:
Settings in all cases: both partners purified
[1] = molecular target: T1, vinculin D1D2 (vinculin residues 1–484) (human, UniProt P18206 1-484); assay: native gel or EMSA; band A′ cut from the CN-PAGE gel, run in a second dimension on SDS–PAGE, Coomassie staining and scanning densitometry of D1D2 and aVBD (N = 2)
T1 construct: vinculin, human, head subdomains D1 and D2, residues 1-484; Valencia-Gallardo et al, 2023) for the plasmid and the purification; also called WT; parental D1D2
T1 sequence (looked up): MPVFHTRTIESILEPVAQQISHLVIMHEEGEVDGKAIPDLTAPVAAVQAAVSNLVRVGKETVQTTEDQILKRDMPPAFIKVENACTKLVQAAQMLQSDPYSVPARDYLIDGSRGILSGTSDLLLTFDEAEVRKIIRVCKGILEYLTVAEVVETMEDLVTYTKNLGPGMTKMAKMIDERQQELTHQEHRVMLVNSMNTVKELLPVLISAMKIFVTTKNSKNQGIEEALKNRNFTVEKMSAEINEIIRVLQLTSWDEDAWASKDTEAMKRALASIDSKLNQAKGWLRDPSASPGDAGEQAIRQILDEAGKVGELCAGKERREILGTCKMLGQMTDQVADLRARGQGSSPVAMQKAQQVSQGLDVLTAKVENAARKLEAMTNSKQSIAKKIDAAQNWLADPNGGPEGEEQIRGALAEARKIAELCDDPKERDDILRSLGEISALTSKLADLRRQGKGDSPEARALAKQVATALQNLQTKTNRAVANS

[2] = molecular target: T1, vinculin D1D2 (vinculin residues 1–484); assay: native gel or EMSA; CN-PAGE: D1D2 variant (20 μM) with increasing molar ratio of aVBD, 60 min at 21°C; 7.5% (Fig 2, methods) or 10% (Fig 3, S3) native polyacrylamide gel, Coomassie staining, scanning densitometry normalised to monomeric D1D2 without aVBD; rates from linear fits against the aVBD:D1D2 ratio
vinculin D1D2 D389R = molecular target: T2, vinculin D1D2 D389R (human, UniProt P18206 1-484, D389R); assay: as above
T2 construct: vinculin, human, head subdomains D1 and D2, residues 1-484, with D389R
T2 sequence (looked up): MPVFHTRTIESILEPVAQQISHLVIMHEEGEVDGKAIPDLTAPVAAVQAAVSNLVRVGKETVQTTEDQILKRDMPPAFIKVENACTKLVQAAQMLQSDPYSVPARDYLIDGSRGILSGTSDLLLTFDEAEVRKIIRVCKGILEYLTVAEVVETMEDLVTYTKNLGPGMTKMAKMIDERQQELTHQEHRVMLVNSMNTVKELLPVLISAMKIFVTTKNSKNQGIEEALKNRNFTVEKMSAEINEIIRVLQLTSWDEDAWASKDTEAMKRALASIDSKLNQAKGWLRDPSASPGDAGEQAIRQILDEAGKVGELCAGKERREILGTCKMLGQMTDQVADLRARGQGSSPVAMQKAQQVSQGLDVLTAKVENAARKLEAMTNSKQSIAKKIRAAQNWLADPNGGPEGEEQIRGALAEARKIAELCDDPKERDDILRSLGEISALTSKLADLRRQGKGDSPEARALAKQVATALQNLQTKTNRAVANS

vinculin D1D2 E143K = molecular target: T3, vinculin D1D2 E143K (human, UniProt P18206 1-484, E143K); assay: as above
T3 construct: vinculin, human, head subdomains D1 and D2, residues 1-484, with E143K
T3 sequence (looked up): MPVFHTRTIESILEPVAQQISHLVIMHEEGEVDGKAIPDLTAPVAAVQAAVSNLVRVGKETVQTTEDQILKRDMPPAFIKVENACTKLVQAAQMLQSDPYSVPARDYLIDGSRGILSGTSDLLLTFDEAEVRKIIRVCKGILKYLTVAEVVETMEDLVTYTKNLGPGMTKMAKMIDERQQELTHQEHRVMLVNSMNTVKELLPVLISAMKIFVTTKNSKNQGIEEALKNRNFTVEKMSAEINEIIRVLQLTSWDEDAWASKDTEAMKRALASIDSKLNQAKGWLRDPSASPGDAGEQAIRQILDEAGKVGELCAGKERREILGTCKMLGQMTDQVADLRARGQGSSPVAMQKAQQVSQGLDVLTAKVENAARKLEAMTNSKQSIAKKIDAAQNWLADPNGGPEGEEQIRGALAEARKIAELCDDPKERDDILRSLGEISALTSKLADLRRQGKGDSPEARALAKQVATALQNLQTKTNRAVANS

vinculin D1D2 V367D = molecular target: T4, vinculin D1D2 V367D (human, UniProt P18206 1-484, V367D); assay: as above
T4 construct: vinculin, human, head subdomains D1 and D2, residues 1-484, with V367D
T4 sequence (looked up): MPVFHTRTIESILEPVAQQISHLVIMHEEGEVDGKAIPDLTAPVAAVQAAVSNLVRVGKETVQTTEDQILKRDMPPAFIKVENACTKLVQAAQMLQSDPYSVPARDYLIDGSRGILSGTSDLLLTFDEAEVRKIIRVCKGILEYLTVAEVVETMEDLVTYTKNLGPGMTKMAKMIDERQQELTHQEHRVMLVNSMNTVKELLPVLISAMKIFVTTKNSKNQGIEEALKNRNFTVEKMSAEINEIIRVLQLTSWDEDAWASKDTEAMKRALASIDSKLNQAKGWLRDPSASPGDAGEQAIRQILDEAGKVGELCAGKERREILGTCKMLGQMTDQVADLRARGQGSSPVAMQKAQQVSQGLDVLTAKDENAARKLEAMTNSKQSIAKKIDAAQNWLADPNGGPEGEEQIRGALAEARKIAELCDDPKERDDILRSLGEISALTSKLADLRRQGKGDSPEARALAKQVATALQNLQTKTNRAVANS

vinculin D1D2 K386D = molecular target: T5, vinculin D1D2 K386D (human, UniProt P18206 1-484, K386D); assay: as above
T5 construct: vinculin, human, head subdomains D1 and D2, residues 1-484, with K386D
T5 sequence (looked up): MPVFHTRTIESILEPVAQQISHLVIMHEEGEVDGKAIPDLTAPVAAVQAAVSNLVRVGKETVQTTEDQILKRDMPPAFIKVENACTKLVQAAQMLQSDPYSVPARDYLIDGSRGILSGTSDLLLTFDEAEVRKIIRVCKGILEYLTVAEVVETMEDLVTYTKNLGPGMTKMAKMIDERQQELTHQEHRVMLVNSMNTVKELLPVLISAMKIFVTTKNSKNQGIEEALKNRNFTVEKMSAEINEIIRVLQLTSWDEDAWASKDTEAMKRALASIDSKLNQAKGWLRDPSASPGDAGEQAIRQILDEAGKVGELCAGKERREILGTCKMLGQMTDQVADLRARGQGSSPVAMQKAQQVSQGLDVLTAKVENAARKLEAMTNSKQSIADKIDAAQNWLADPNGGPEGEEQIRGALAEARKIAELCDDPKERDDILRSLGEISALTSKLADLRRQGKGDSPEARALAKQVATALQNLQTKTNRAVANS

vinculin D1D2 K139E = molecular target: T6, vinculin D1D2 K139E (human, UniProt P18206 1-484, K139E); assay: as above
T6 construct: vinculin, human, head subdomains D1 and D2, residues 1-484, with K139E
T6 sequence (looked up): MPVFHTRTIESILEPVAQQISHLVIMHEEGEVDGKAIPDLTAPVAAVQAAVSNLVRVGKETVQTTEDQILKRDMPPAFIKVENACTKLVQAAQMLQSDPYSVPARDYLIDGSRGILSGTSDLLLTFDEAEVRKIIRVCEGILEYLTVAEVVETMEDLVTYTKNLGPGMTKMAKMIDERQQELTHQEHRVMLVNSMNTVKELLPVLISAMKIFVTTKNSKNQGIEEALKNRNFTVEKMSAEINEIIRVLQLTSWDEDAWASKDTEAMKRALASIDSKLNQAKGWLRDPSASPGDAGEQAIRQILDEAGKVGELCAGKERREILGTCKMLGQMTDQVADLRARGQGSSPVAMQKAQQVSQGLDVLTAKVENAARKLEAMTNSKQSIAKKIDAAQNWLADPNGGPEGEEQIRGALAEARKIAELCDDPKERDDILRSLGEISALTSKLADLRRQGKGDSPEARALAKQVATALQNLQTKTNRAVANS

vinculin D1D2 N393D = molecular target: T7, vinculin D1D2 N393D (human, UniProt P18206 1-484, N393D); assay: as above
T7 construct: vinculin, human, head subdomains D1 and D2, residues 1-484, with N393D
T7 sequence (looked up): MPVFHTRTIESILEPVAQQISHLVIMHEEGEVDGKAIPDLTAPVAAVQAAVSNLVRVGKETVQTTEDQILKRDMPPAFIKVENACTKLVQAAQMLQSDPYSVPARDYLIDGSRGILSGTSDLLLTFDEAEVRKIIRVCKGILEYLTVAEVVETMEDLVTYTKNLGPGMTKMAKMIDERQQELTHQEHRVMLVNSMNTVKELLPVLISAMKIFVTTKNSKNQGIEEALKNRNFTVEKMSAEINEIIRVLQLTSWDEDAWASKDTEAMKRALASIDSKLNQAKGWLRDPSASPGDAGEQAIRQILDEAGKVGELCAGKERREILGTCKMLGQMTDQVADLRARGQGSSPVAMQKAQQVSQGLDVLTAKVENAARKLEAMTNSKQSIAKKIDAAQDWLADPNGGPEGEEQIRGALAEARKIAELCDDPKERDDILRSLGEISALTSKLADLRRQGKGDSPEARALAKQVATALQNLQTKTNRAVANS

B1: IpaA domain containing all three IpaA VBS1-3 (aVBD) (domain or fragment)
chain: GDTYLTRETIFEASKKVTNSLSNLISLIGTKSGTQERELQEKSKDITKSTTEHRINNKLKVTDANIRNYVTETNADTIDKNHAIYEKAKEVSSALSKVLSKIDDTSAELLTDDISDLKNNNDITAENNNIYKAAKDVTTSLSKVLKNINKD
notes: The plasmid is said to be described previously; also called A483; source: E. coli DH5-α, pGEX-4T2-aVBD, purified (GSTrap, thrombin on the column, SEC on Superdex 200)
[1]
  stoichiometry N: 3.2 D1D2:aVBD molar ratio
[2]
  rate of monomer disappearance: -1.06 AU^−1
Vinculin D1D2 D389R
  rate of monomer disappearance: -1.06 AU^−1
Vinculin D1D2 E143K
  rate of monomer disappearance: -0.88 AU^−1
Vinculin D1D2 V367D
  rate of monomer disappearance: -0.88 AU^−1
Vinculin D1D2 K386D
  rate of monomer disappearance: -1.29 AU^−1
Vinculin D1D2 K139E
  rate of monomer disappearance: -1.42 AU^−1
Vinculin D1D2 N393D
  rate of monomer disappearance: -1.32 AU^−1

From article PMC11150655, “IpaA reveals distinct modes of vinculin activation during Shigella invasion and cell-matrix adhesion” (Life Science Alliance, 2024)
